Columns and labels:
[1] = tested on: patient-derived (PDX) neuroblastoma ALK F1174L tumor; experiment: Patient-derived (PDX) neuroblastoma ALK F1174L tumor model; format: in vivo, mouse; settings: two weekly intraperitoneal doses at 10 mg/kg, two-week period, in comparison with control IgG1
Source text: (§1) FIGS. 8A-B depict the in vivo antitumor activity of the Ab326 anti-ALK antibody in a patient-derived (PDX) neuroblastoma ALK F1174L tumor model compared with control IgG1 (A) and a western blot of tumor homogenates harvested from the patient-derived tumor model showing relative levels of total ALK and phosphorylated ALK in Ab326-treated and control IgG1-treated mice (B). GAPDH is included in the western blot of FIG. 8B as a control for protein level.
Patient-derived (PDX) neuroblastoma tumor model mice were produced. […] Mice received two weekly intraperitoneal doses of Ab326 or a control IgG1 at 10 mg/kg.
(§2) The effect of Ab326, generated in Example 1, on the patient-derived NB tumor mouse model was consistent with its inhibitory effect on phosphorylation of ALK and downstream signaling (FIG. 8A). Tumor volume was reduced over a two-week period in comparison with a control IgG1 antibody.

[2] = biological target: murine ALK (purified mouse ALK antigen) (Mus musculus, UniProt P97793); experiment: Mouse ALK cross-reactivity, solid-state ELISA; format: binding; parameters: key: − none; + weak; ++ moderate; +++ strong; settings: cross-reactivity with murine ALK
Experimental: Purified mAbs were evaluated for their ability to bind murine ALK by solid-state ELISA, or flow cytometry on Neuro-2a cells that express low levels of endogenous murine ALK. […]

NB1 cells [3] = experiment: Crizotinib titration and co-titration with ALK antibodies, killing of NB1 cells; format: cell-based, human; settings: co-titration of crizotinib with the antibody
[4] = biological target: T1, cell surface mALK on Neuro2a cells (Mus musculus, UniProt P97793); experiment: KD of humanized antibodies on Neuro2a (mouse) cells; format: binding; settings: FACS, mean
T1 construct: Neuro-2a cells that express low levels of endogenous murine ALK; endogenous in cells; host or cells: Neuro-2a (Neuro2a) mouse neuroblastoma cells
Experimental: (§3) Amino acid residues that differ between rat ALK and mouse ALK are boxed. KD values for both NB1 (human) cells and Neuro2a (mouse) cells were also determined.

[5] = biological target: C-terminal region of human ALK ECD (T637-S1038) (Homo sapiens, UniProt Q9UM73); experiment: Competitive binding assay (epitope binning) by flow cytometry; settings: antibodies to the C-terminal region
Experimental: Antibodies that bind to the C-terminal region of human ALK ECD (T637-S1038) were further characterized using a competitive binding assay. A pairwise matrix approach was used whereby each antibody was fluorescently labeled and tested for its ability to bind to ALK-expressing cells pre-incubated with an unlabeled antibody. The ability of both antibodies to bind the C-terminal domain simultaneously was tested via flow cytometry. If both antibodies bound simultaneously, they were put into different bins and considered to belong to a separate epitope class.

[6] = tested on: ALK on the surface of NB1 cells; experiment: KD determination by flow cytometry on NB1 cells; format: binding; settings: NB1 (human) cells, FACS, mean
Experimental: FIG. 3 depicts the apparent affinities (KD) of ALK antibodies for ALK expression on the surface of NB1 cells. KD was determined by flow cytometry. Titration of each antibody on NB1 cells for 2-4 hours at 4° C. was followed by incubation with a fluorescently-labeled secondary antibody. The normalized mean fluorescent intensity […] shown as “% Max binding” was plotted as a function of antibody concentration.
Flow cytometry was utilized to measure the affinity at steady state (KD) with which different ALK antibodies bind to ALK on the surface of NB1 cells (FIG. 3). Titration of each antibody on NB1 cells for 2-4 hours at 4° C. was followed by incubation with a fluorescently-labeled secondary antibody. The normalized mean fluorescent intensity (MFI) shown as “% Max binding” was plotted as a function of antibody concentration. The data were fit to a one site binding isotherm using GraphPad Prism, from which affinity values were derived.
as §3

[7] = tested on: ALK (total protein levels in NB1 cells); experiment: ALK turnover (total protein levels) by Western blot, 24 hour treatment of NB1 cells; format: cell-based, human; parameters: key: − none; + weak; ++ moderate; +++ strong
Source text: FIG. 5 depicts a Western blot of a panel of ALK antibodies.
See also Table 18, below.

[8] = tested on: ALK (basal phosphorylation in NB1 cells); experiment: Western blot of ALK phosphorylation in NB1 cells; format: cell-based, human
Experimental: Lysed cells were subjected to SDS-PAGE, transferred to nitrocellulose and immunoblotted with antibodies against total, and phospho-specific ALK, AKT, and MAPK. FIG. 4B depicts an ELISA of NB1 cells grown in media with reduced serum and treated with 30-100 nM of each antibody for 1-2 hours. Cell lysates were incubated on ELISA plates with an anti-ALK antibody, followed by incubation with a pan phosphotyrosine antibody coupled to HRP.
Cell lysates were subjected to SDS-PAGE and transferred to nitrocellulose. Immunoblotting was performed with antibodies against total, and phospho-specific ALK, AKT, and MAPK (purchased from Cell Signaling and utilized per manufacturer's instructions). HRP (horse radish peroxidase)-conjugated secondary antibodies (Thermo Scientific, Waltham, Mass.) were used along with Supersignal West Pico Chemiluminescent Substrate (Thermo Scientific, Waltham, Mass.) to image blots.
Anti-ALK monoclonal antibodies generated in Example 1 were evaluated via Western blotting for their ability to activate or inhibit basal levels of ALK phosphorylation in NB1 cells (FIG. 4A). A subset of ALK antibodies stimulated ALK tyrosine phosphorylation and a different subset of antibodies inhibited basal levels of ALK phosphorylation. See also Table 18, below. […] That is, ALK antibodies that stimulated ALK tyrosine phosphorylation increased MAPK and AKT phosphorylation, whereas ALK antibodies that inhibited ALK tyrosine phosphorylation decreased basal levels of MAPK and AKT phosphorylation (FIG. 4A). Similar results were obtained in ELISA-based ALK phosphorylation assays from lysates of NB1 cells treated with ALK antibodies (FIG. 4B).

[9] = biological target: T2, total ALK and phosphorylated ALK in tumor homogenates (Homo sapiens, UniProt Q9UM73, F1174L); experiment: Western blot of tumor homogenates from the PDX model; format: in vivo, mouse; settings: tumors harvested 72 hours after the second dose, vs control IgG1
T2 construct: Western blot analysis of homogenates of tumors harvested 72 hours after the second dose; from tissue; host or cells: patient-derived (PDX) neuroblastoma tumors grown in mice
Source text: as §1, §2

NB1 cells [10] = experiment: NB1 cell morphology; format: cell-based, human; settings: NB1 cells treated with antibody
Source text: By contrast, treatment with Ab324, an ALK agonist, caused the cells to spread out.

T2 sequence (Q9UM73 19-1620 F1174L): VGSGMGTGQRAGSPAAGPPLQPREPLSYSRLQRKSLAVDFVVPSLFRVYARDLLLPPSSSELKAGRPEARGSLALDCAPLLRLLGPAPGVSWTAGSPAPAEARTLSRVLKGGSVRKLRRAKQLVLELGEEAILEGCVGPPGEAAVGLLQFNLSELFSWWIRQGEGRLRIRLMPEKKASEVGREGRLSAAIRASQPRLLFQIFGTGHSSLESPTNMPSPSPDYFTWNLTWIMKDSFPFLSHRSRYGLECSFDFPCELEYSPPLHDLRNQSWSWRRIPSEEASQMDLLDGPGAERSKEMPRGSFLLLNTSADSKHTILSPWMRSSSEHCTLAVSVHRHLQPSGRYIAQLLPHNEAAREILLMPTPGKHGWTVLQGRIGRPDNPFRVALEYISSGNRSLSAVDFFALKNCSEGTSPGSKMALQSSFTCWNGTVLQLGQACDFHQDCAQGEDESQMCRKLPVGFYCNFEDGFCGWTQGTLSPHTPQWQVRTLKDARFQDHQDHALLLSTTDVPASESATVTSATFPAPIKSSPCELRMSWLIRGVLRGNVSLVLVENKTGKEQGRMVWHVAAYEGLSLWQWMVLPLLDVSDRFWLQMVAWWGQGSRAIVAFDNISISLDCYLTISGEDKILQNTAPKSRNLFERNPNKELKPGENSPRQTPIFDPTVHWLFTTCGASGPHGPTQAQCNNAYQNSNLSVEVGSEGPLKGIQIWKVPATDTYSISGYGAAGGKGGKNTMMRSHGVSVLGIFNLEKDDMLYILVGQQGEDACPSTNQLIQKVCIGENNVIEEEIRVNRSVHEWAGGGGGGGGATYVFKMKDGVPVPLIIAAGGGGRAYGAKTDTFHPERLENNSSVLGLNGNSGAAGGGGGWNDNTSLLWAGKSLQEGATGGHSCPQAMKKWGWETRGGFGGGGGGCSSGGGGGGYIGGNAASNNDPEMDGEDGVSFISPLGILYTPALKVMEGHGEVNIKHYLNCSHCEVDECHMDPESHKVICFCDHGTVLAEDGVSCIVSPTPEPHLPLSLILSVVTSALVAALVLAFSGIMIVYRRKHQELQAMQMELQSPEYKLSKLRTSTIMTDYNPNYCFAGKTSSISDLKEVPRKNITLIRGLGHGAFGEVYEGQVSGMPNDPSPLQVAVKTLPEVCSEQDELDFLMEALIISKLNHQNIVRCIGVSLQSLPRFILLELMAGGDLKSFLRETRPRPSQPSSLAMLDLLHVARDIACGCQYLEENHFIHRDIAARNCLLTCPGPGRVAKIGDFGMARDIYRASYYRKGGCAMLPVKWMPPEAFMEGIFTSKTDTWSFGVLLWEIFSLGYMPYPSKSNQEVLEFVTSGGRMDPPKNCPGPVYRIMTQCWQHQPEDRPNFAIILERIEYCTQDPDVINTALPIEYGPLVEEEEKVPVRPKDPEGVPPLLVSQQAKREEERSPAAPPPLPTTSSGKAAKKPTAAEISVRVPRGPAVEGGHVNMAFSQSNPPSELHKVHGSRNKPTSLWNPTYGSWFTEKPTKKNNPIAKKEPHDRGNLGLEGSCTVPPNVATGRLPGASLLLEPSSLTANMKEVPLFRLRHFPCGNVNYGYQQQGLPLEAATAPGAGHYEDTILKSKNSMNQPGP
Chain of murine ALK (purified mouse ALK antigen) (P97793 19-1042 limits assumed): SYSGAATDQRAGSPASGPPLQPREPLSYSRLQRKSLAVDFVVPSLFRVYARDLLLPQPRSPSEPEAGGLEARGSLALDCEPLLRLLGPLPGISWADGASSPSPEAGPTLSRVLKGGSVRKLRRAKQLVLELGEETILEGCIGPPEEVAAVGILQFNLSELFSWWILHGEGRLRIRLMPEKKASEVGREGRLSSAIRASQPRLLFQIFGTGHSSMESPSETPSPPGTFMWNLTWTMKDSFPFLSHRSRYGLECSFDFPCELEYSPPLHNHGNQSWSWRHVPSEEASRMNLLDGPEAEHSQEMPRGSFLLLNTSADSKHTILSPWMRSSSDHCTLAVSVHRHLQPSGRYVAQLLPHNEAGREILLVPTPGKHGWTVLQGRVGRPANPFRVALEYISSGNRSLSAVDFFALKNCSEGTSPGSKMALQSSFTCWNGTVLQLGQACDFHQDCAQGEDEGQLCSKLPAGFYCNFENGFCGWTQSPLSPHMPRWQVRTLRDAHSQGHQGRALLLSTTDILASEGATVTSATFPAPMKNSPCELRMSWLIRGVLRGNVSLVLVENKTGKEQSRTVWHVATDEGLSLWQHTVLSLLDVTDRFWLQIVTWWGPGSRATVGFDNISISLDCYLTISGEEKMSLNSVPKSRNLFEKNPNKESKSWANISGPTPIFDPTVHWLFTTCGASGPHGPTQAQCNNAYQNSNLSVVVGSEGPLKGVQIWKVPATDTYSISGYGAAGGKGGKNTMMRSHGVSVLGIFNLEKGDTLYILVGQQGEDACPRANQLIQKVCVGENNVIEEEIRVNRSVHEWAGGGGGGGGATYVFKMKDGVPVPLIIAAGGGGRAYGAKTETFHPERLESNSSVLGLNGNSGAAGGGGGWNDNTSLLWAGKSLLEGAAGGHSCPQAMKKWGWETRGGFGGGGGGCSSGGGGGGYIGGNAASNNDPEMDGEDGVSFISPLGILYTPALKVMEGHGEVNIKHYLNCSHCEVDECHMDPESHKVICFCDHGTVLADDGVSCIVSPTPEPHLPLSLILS
T1 sequence (P97793 19-1621): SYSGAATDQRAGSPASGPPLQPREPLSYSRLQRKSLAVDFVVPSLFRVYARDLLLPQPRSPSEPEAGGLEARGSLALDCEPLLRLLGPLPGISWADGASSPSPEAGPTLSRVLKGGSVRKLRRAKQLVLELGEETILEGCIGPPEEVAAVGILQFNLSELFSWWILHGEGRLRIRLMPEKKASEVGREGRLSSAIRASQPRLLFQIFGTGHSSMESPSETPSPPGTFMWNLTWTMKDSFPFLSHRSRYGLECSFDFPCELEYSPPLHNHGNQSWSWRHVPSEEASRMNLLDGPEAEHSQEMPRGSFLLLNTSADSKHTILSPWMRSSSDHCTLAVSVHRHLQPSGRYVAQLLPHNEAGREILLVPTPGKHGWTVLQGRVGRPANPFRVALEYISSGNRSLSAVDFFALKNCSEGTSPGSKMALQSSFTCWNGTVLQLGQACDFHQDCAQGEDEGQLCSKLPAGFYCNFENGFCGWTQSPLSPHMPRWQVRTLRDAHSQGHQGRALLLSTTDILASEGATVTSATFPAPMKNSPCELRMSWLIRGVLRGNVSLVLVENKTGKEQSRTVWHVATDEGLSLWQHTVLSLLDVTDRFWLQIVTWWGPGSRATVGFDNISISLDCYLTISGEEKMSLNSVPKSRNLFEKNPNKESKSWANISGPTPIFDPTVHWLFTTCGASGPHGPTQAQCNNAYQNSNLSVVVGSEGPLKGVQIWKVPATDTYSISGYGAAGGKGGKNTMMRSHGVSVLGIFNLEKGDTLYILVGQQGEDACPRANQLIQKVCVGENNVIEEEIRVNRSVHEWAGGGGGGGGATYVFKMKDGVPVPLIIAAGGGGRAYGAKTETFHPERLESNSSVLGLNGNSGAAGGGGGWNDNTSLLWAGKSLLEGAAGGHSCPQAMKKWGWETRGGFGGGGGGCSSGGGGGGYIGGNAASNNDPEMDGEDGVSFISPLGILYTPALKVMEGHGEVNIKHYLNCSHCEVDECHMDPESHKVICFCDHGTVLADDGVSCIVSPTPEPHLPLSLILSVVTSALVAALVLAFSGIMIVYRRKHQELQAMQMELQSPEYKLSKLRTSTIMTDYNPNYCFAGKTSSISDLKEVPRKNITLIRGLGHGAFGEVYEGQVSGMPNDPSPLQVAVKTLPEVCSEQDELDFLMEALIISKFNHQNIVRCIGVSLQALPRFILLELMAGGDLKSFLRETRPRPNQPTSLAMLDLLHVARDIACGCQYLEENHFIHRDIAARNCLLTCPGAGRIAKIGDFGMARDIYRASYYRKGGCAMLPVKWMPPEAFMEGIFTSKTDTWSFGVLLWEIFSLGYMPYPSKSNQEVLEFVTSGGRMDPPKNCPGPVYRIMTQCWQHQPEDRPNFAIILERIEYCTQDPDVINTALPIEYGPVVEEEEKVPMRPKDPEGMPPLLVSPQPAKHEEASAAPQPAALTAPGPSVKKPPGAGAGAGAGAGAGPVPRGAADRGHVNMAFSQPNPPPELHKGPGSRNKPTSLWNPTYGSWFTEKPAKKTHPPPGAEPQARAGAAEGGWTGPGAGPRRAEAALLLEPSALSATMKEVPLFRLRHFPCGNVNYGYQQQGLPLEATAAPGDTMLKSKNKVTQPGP
Chain of C-terminal region of human ALK ECD (T637-S1038) (Q9UM73 19-1620): as the sequence (Q9UM73 19-1620 F1174L) above, with L1156F counted along it

mouse ALK binding [2]: +++
Kd [4]: 0.58 nM
Bin/Domain (bin) [5]: 2
phosphorylated ALK in tumor homogenates [9]: reduction
total ALK in tumor homogenates [9]: reduction
B1: Ab326: anti-ALK monoclonal antibody; VL SEQ ID NO: 407, VH SEQ ID NO: 408 (antibody, V domains shown)
VH: QVQLQQSGAELAKPGASVKLSCKASGYTFTSYWMHWVKQRPGQGLEWIGYIKPSSGYTKYNQKFKDKATLTADKSSSTAYMQLSSLTYEDSAVYYCARDYYGSSSWFAYWGQGTLVTVSA
VL: DIVMTQSQRFMSTSVGDRVSVTCKASQNVGTNVAWYQQKPGQSPKALIYSASYRYSGVPDRFTGSGSGTDFTLTISNVQSEDLAEYFCQQYNSYPYMYTFGGGTKLEIKR
modifications: VH domain - Ab326; VL domain - Ab326
tumor volume [1]: reduced
effect on the anti-proliferative effect of crizotinib (NB1 cells [3]): enhanced
Kd [6]: 0.94 nM
ALK turnover [7]: −
effect on ALK activity (ALK inhibitory or ALK agonistic antibody) [8]: inhibitory
ALK phosphorylation ([8]; effect in words): inhibitor
NB1 cell morphology (NB1 cells [10]): rounded morphology
